Test results from patent US20150087584A1 (COUNCIL OF SCIENTIFIC AND INDUSTRIAL RESEARCH, published 2015).

B1: inhibitory repeat domain IRD-9 of Capsicum annuum Pin-II proteinase inhibitors (CanPIs) (other)
chain: QPICTNSSAGLKGCNYYNADGTFICEGESDPNHPKACPKNCDPNIAYSLC
B2: inhibitory repeat domain IRD-12 of Capsicum annuum Pin-II proteinase inhibitors (CanPIs) (other)
chain: NRLCTNCCAGRKGCNYYSADGTFICEGESDPNNPKACPRNCDPNIAYSLC

Target: bovine trypsin (bovine, UniProt P00760 24-246)
Test: cell-based or functional assay

bovine trypsin, sequence (P00760 24-246): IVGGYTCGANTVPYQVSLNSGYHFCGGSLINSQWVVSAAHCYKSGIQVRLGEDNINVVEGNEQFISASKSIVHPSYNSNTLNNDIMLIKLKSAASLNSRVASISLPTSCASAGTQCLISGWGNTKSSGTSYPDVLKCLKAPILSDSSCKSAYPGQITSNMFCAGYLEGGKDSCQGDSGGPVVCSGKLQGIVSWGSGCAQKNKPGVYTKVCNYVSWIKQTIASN

Binder | IC50 of inhibition of bovine trypsin activity (BApNA substrate)
B1 | ~2.2 µM
B2 | ~65 µM
